± gives the standard deviation of the averaged measurements.
What follows are sequences tested on ATP (assay: switch fluorescence ratio, 500 uM ATP over buffer (Cy3 cluster intensity, sum of 5 cycles each) (fold (ratio)); higher = stronger signal-on switching upon ATP binding; sequences stand for … in TCGTCGGCAGCGTCAGATGTGTATAAGAGACAGTTTTTTTTTTTTTTTTTTTTTTTTT…TC). Details: aptamer strand: ATP DNA aptamer (quencher-CACCTGGGGGAGTATTGCGGAGGAAGG + anchor), 100 nM annealed; ATP concentration: 500 uM.
How it was run: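 Five buffer/ATP imaging cycles were run on Cy3-labelled switching-strand clusters on a modified Illumina MiSeq flow-cell, with NaOH stripping and re-annealing between cycles. In each cycle, clusters annealed to 100 nM quencher-labelled ATP aptamer were imaged in selection buffer, then after 15 min with 500 uM ATP at 22 °C. Per cluster, the fluorescence ratio is summed target-cycle over summed buffer-cycle Cy3 intensity, averaged per switch-domain sequence. Only clusters within 100-1000 RFU were kept.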
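Note: ATP exposure 15 min at 22 °C before imaging.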

CCGCCTTGGG was tested. Which switch fluorescence ratio did it give?
Its switch fluorescence ratio is 1.09 ± 0.029.

Which switch fluorescence ratio does the source give for CCGCGACGGG here?
Its switch fluorescence ratio is 1.69 ± 0.48.

With CCGCGCCGAT as the sequence, how does the switch fluorescence ratio read?
The switch fluorescence ratio was 1.37 ± 0.16.

Which switch fluorescence ratio does the source give for CCGCGGGGTG here?
Its switch fluorescence ratio is 2.2 ± 0.77.

Which switch fluorescence ratio does the source give for CCGCGGGTTT here?
Its switch fluorescence ratio is 1.08 ± 0.075.

CCGCGTCGCT was tested. Which switch fluorescence ratio did it give?
The switch fluorescence ratio was 1.317 ± 0.0055.

Which switch fluorescence ratio does the source give for CCGCTAGGGC here?
The switch fluorescence ratio was 2.1 ± 1.2.

Which switch fluorescence ratio does the source give for CCGCTTCCGG here?
The switch fluorescence ratio was 1.08 ± 0.018.

For CCGGAAGACG, which switch fluorescence ratio is on record?
Its switch fluorescence ratio is 1.39 ± 0.18.

Which switch fluorescence ratio does the source give for CCGGAAGAGA here?
Its switch fluorescence ratio is 1.09 ± 0.035.

With CCGGACCAGA as the sequence, how does the switch fluorescence ratio read?
The switch fluorescence ratio was 1.15 ± 0.057.

Which switch fluorescence ratio does the source give for CCGGACTATC here?
The switch fluorescence ratio was 2.4 ± 0.086.

With CCGGACTTGG as the sequence, how does the switch fluorescence ratio read?
Its switch fluorescence ratio is 0.96 ± 0.09.

CCGGATTAA was tested. Which switch fluorescence ratio did it give?
The switch fluorescence ratio was 1.02 ± 0.039.

Which switch fluorescence ratio does the source give for CCGGCGCGTT here?
The switch fluorescence ratio was 1.96 ± 1.3.

For CCGGCGGGCT, which switch fluorescence ratio is on record?
Its switch fluorescence ratio is 1.05 ± 0.013.

For CCGGCGGTTG, which switch fluorescence ratio is on record?
Its switch fluorescence ratio is 1 ± 0.012.

How did the switch fluorescence ratio turn out when CCGGCTTACG was run?
The switch fluorescence ratio was 1.2 ± 0.1.

CCGGGAGGAT was tested. Which switch fluorescence ratio did it give?
Its switch fluorescence ratio is 0.987 ± 0.035.

Which switch fluorescence ratio does the source give for CCGGGAGTTA here?
Its switch fluorescence ratio is 1.15 ± 0.034.

For CCGGGCGACA, which switch fluorescence ratio is on record?
Its switch fluorescence ratio is 1.11 ± 0.031.

Which switch fluorescence ratio does the source give for CCGGGCGGGG here?
Its switch fluorescence ratio is 1.07 ± 0.018.

How did the switch fluorescence ratio turn out when CCGGGCGTA was run?
The switch fluorescence ratio was 1.15 ± 0.083.

With CCGGGGAAGG as the sequence, how does the switch fluorescence ratio read?
The switch fluorescence ratio was 1.04 ± 0.0092.

CCGGGGGAGG was tested. Which switch fluorescence ratio did it give?
Its switch fluorescence ratio is 1.06 ± 0.048.

With CCGGGGGGAA as the sequence, how does the switch fluorescence ratio read?
Its switch fluorescence ratio is 1.03 ± 0.063.

How did the switch fluorescence ratio turn out when CCGGGGGGCG was run?
The switch fluorescence ratio was 0.976 ± 0.053.

Which switch fluorescence ratio does the source give for CCGGGGGGTT here?
The switch fluorescence ratio was 1.09 ± 0.14.

For CCGGGGTACA, which switch fluorescence ratio is on record?
Its switch fluorescence ratio is 1.17 ± 0.17.

CCGGGGTGTG was tested. Which switch fluorescence ratio did it give?
Its switch fluorescence ratio is 1.08 ± 0.012.

Which switch fluorescence ratio does the source give for CCGGGTTAGT here?
Its switch fluorescence ratio is 1.06 ± 0.017.

CCGGGTTGTA was tested. Which switch fluorescence ratio did it give?
Its switch fluorescence ratio is 1.02 ± 0.046.

How did the switch fluorescence ratio turn out when CCGGGTTTGG was run?
The switch fluorescence ratio was 0.984 ± 0.017.

With CCGGGTTTTG as the sequence, how does the switch fluorescence ratio read?
Its switch fluorescence ratio is 1.017 ± 0.0016.

For CCGGTAGGGA, which switch fluorescence ratio is on record?
The switch fluorescence ratio was 1.01 ± 0.021.

How did the switch fluorescence ratio turn out when CCGGTCTGGC was run?
Its switch fluorescence ratio is 1.01 ± 0.013.

How did the switch fluorescence ratio turn out when CCGGTCTTTT was run?
The switch fluorescence ratio was 0.961 ± 0.018.

Which switch fluorescence ratio does the source give for CCGGTGACGA here?
The switch fluorescence ratio was 1.053 ± 0.0041.

Which switch fluorescence ratio does the source give for CCGGTGGGGT here?
Its switch fluorescence ratio is 1.01 ± 0.03.

CCGGTGTGCC was tested. Which switch fluorescence ratio did it give?
Its switch fluorescence ratio is 1.01 ± 0.052.

Which switch fluorescence ratio does the source give for CCGGTTCATT here?
Its switch fluorescence ratio is 1.0368 ± 0.00072.

Which switch fluorescence ratio does the source give for CCGGTTTGGG here?
The switch fluorescence ratio was 0.988 ± 0.042.

How did the switch fluorescence ratio turn out when CCGTAACGGG was run?
Its switch fluorescence ratio is 1.09 ± 0.085.

How did the switch fluorescence ratio turn out when CCGTAATATT was run?
Its switch fluorescence ratio is 3.69 ± 1.8.

For CCGTAATGGG, which switch fluorescence ratio is on record?
Its switch fluorescence ratio is 1.85 ± 0.038.

For CCGTAGAATT, which switch fluorescence ratio is on record?
The switch fluorescence ratio was 1.68 ± 0.046.

Which switch fluorescence ratio does the source give for CCGTATAGCT here?
The switch fluorescence ratio was 1.24 ± 0.039.

How did the switch fluorescence ratio turn out when CCGTCTCTCC was run?
Its switch fluorescence ratio is 1.73 ± 0.093.

For CCGTGATATG, which switch fluorescence ratio is on record?
The switch fluorescence ratio was 2.492 ± 0.0084.

CCGTGATGGG was tested. Which switch fluorescence ratio did it give?
Its switch fluorescence ratio is 1.14 ± 0.066.

For CCGTGCACAT, which switch fluorescence ratio is on record?
The switch fluorescence ratio was 2.679 ± 0.0035.

How did the switch fluorescence ratio turn out when CCGTGCTCTA was run?
The switch fluorescence ratio was 1.281 ± 0.0015.

With CCGTGGAAAG as the sequence, how does the switch fluorescence ratio read?
Its switch fluorescence ratio is 1.02 ± 0.027.

For CCGTGGCGCA, which switch fluorescence ratio is on record?
Its switch fluorescence ratio is 1.88 ± 0.21.

With CCGTGGTAGG as the sequence, how does the switch fluorescence ratio read?
The switch fluorescence ratio was 1.01 ± 0.018.

CCGTTATAGT was tested. Which switch fluorescence ratio did it give?
Its switch fluorescence ratio is 1.795 ± 0.012.

For CCGTTCCCGT, which switch fluorescence ratio is on record?
Its switch fluorescence ratio is 1.13 ± 0.028.

For CCGTTGGGTG, which switch fluorescence ratio is on record?
The switch fluorescence ratio was 1.12 ± 0.071.

Which switch fluorescence ratio does the source give for CCGTTGGTAA here?
The switch fluorescence ratio was 1.345 ± 0.0022.

With CCGTTGTCTT as the sequence, how does the switch fluorescence ratio read?
The switch fluorescence ratio was 1.03 ± 0.025.

How did the switch fluorescence ratio turn out when CCGTTTCCGG was run?
Its switch fluorescence ratio is 1.02 ± 0.027.

With CCGTTTCTGG as the sequence, how does the switch fluorescence ratio read?
The switch fluorescence ratio was 1 ± 0.063.

CCGTTTGGGA was tested. Which switch fluorescence ratio did it give?
The switch fluorescence ratio was 0.998 ± 0.032.

How did the switch fluorescence ratio turn out when CCGTTTTCGG was run?
Its switch fluorescence ratio is 0.952 ± 0.053.

For CCTAAAGTAG, which switch fluorescence ratio is on record?
The switch fluorescence ratio was 1.017 ± 0.0071.

CCTAAATACC was tested. Which switch fluorescence ratio did it give?
The switch fluorescence ratio was 1.29 ± 0.25.

For CCTAAATGGG, which switch fluorescence ratio is on record?
The switch fluorescence ratio was 1.01 ± 0.077.

CCTAACAGGA was tested. Which switch fluorescence ratio did it give?
The switch fluorescence ratio was 1.01 ± 0.04.

For CCTAAGGGGG, which switch fluorescence ratio is on record?
Its switch fluorescence ratio is 1.04 ± 0.074.

CCTAATGCAG was tested. Which switch fluorescence ratio did it give?
Its switch fluorescence ratio is 1.11 ± 0.049.

Which switch fluorescence ratio does the source give for CCTACCCTCC here?
The switch fluorescence ratio was 3.05 ± 0.22.

For CCTACGTGGT, which switch fluorescence ratio is on record?
The switch fluorescence ratio was 4.49 ± 0.15.

With CCTAGGGGTC as the sequence, how does the switch fluorescence ratio read?
Its switch fluorescence ratio is 1.09 ± 0.028.

For CCTAGGGGTG, which switch fluorescence ratio is on record?
The switch fluorescence ratio was 1.32 ± 0.27.

With CCTAGGGTCA as the sequence, how does the switch fluorescence ratio read?
Its switch fluorescence ratio is 1.01 ± 0.018.

With CCTAGGGTTC as the sequence, how does the switch fluorescence ratio read?
The switch fluorescence ratio was 0.984 ± 0.01.

How did the switch fluorescence ratio turn out when CCTAGTTGTG was run?
The switch fluorescence ratio was 1.02 ± 0.016.

Which switch fluorescence ratio does the source give for CCTATGCGGT here?
The switch fluorescence ratio was 2.6 ± 0.067.

Which switch fluorescence ratio does the source give for CCTATGCTTC here?
Its switch fluorescence ratio is 3.38 ± 1.7.

Which switch fluorescence ratio does the source give for CCTATGGGGT here?
The switch fluorescence ratio was 0.974 ± 0.024.

How did the switch fluorescence ratio turn out when CCTATGGTAG was run?
Its switch fluorescence ratio is 1.014 ± 0.0099.

Which switch fluorescence ratio does the source give for CCTATTATTG here?
The switch fluorescence ratio was 0.98 ± 0.028.

CCTATTGTAT was tested. Which switch fluorescence ratio did it give?
Its switch fluorescence ratio is 1.02 ± 0.033.

CCTATTGTGG was tested. Which switch fluorescence ratio did it give?
The switch fluorescence ratio was 0.993 ± 0.015.

How did the switch fluorescence ratio turn out when CCTATTTGTA was run?
The switch fluorescence ratio was 0.974 ± 0.051.

With CCTCAAAGGG as the sequence, how does the switch fluorescence ratio read?
Its switch fluorescence ratio is 1.38 ± 0.18.

CCTCGCTGAG was tested. Which switch fluorescence ratio did it give?
Its switch fluorescence ratio is 3.48 ± 0.98.

CCTCGGGGGT was tested. Which switch fluorescence ratio did it give?
Its switch fluorescence ratio is 1.02 ± 0.04.

With CCTCGGGTTA as the sequence, how does the switch fluorescence ratio read?
The switch fluorescence ratio was 1.42 ± 0.038.

CCTCTATATT was tested. Which switch fluorescence ratio did it give?
Its switch fluorescence ratio is 1.181 ± 0.011.

How did the switch fluorescence ratio turn out when CCTCTTTTTG was run?
Its switch fluorescence ratio is 1.02 ± 0.011.

How did the switch fluorescence ratio turn out when CCTGAAGACA was run?
The switch fluorescence ratio was 1 ± 0.02.

How did the switch fluorescence ratio turn out when CCTGAGGGAC was run?
The switch fluorescence ratio was 0.99 ± 0.03.

For CCTGAGGGGA, which switch fluorescence ratio is on record?
The switch fluorescence ratio was 1.16 ± 0.2.

CCTGAGGTTA was tested. Which switch fluorescence ratio did it give?
The switch fluorescence ratio was 1.03 ± 0.096.

With CCTGATCACC as the sequence, how does the switch fluorescence ratio read?
The switch fluorescence ratio was 1.063 ± 0.0098.

How did the switch fluorescence ratio turn out when CCTGATGGTA was run?
The switch fluorescence ratio was 1.03 ± 0.025.

How did the switch fluorescence ratio turn out when CCTGATTTGG was run?
The switch fluorescence ratio was 0.969 ± 0.03.

For CCTGCAAACA, which switch fluorescence ratio is on record?
The switch fluorescence ratio was 2.22 ± 0.17.

How did the switch fluorescence ratio turn out when CCTGCAGTTT was run?
The switch fluorescence ratio was 1.04 ± 0.019.

From the supplement of paper PMC10126150
